The text below walks through data of patent US5599789A, “Method for the treatment of tumours and sarcomas” (Amrad Corporation Limited, priority 1991, dated 1997).

Common to all, as to format: cell-based, human
The subject of experiment [1] is Ewing's Sarcoma cell line Cu-1. As to the kind of experiment: Colony formation in semi-solid agar cultures, Cu-1 cells. To be noted: Cu-1, 10,000 cells; stimulus 100 ng; mean of duplicate colony counts, day 18. On the procedure:
(§1) Tumour cells obtained from biopsy and bone marrow specimens from patients with Ewing's Sarcoma were used in these studies. Approval for this project has been obtained from the Ethics Committee of the Royal Children's Hospital.
(§2) Single cell suspensions of tumour cells were obtained by mechanical disruption with an 18G or 21G needle or by pipetting, followed by incubation with dispase II (Boehringer) at a concentration of 1.2 units per ml for 10 minutes at 37° C. Prior to the addition to agar-medium the cells were vortexed gently to prevent clumping.
(§3) Clonal cell lines were grown in Iscove's Modified Dulbecco's Medium (IMDM) supplemented with 10% v/v foetal calf serum (FCS; CSL Limited, Melbourne, Australia) and were passaged either weekly or twice weekly. The characteristics of the Ewing Sarcoma cell lines used herein as described below:
(§4) Cell lines derived from the above primary cell lines (Al and Cu) are identified by an Arabic numeral (e.g. Al-1, Al-5, Al-8 or Cu-1).
(§5) The tumour cells were immobilised in 0.3% w/v agar containing Iscove's Modified Dulbecco's Medium (IMDM) and 10% v/v FCS. […] Cultures were scored for the presence of colonies (>40 cells) or clusters (<40 cells). The number of cells plated per culture ranged from 500 to 10,000 per ml. Colonies were counted on an Olympus dissecting microscope. […]

In experiment [2] the test system is Ewing's Sarcoma cell line Al (uncloned). Kind of experiment: Colony formation in semi-solid agar cultures, Al (uncloned) cells. To be noted: Al(uncloned), 5,000 cells; stimulus 100 ng; mean of duplicate colony counts, day 18. The protocol: as §1, §2, §3
The tumour cells were immobilised in 0.3% w/v agar containing Iscove's Modified Dulbecco's Medium (IMDM) and 10% v/v FCS. […] Cultures were scored for the presence of colonies (>40 cells) or clusters (<40 cells). The number of cells plated per culture ranged from 500 to 10,000 per ml. Colonies were counted on an Olympus dissecting microscope.
IL-1, IL-3, IL-4, IL-6, M-CSF, G-CSF, GM-CSF, Stem Cell Factor (SCF), TNFα, TGFα, TGFβ, EGF, aFGF, bFGF, NGF, IGF I, IGF II, PDGF and IFN-γ. […]

In experiment [3] the test system is Ewing's Sarcoma cell line Al-1. Kind of experiment: Colony formation in semi-solid agar cultures, Al-1 cells. To be noted: stimulus 100 ng, mean of duplicate colony counts, day 18. The protocol:
as §1, §2, §3, §4, §5

The subject of experiment [4] is Ewing's Sarcoma cell line Al-8. Kind of experiment: Colony formation in semi-solid agar cultures, Al-8 cells. To be noted: Al-8, 1,000 cells; stimulus 100 ng; mean of duplicate colony counts, day 18. On the procedure:
as §1, §2, §3, §4, §5

B1: EGF: commercially available growth factor (protein, UniProt P01133 23-1207, looked up)
Pro-epidermal growth factor: PQHWSCPEGTLAGNGNSTCVGPAPFLIFSHGNSIFRIDTEGTNYEQLVVDAGVSVIMDFHYNEKRIYWVDLERQLLQRVFLNGSRQERVCNIEKNVSGMAINWINEEVIWSNQQEGIITVTDMKGNNSHILLSALKYPANVAVDPVERFIFWSSEVAGSLYRADLDGVGVKALLETSEKITAVSLDVLDKRLFWIQYNREGSNSLICSCDYDGGSVHISKHPTQHNLFAMSLFGDRIFYSTWKMKTIWIANKHTGKDMVRINLHSSFVPLGELKVVHPLAQPKAEDDTWEPEQKLCKLRKGNCSSTVCGQDLQSHLCMCAEGYALSRDRKYCEDVNECAFWNHGCTLGCKNTPGSYYCTCPVGFVLLPDGKRCHQLVSCPRNVSECSHDCVLTSEGPLCFCPEGSVLERDGKTCSGCSSPDNGGCSQLCVPLSPVSWECDCFPGYDLQLDEKSCAASGPQPFLLFANSQDIRHMHFDGTDYGTLLSQQMGMVYALDHDPVENKIYFAHTALKWIERANMDGSQRERLIEEGVDVPEGLAVDWIGRRFYWTDRGKSLIGRSDLNGKRSKIITKENISQPRGIAVHPMAKRLFWTDTGINPRIESSSLQGLGRLVIASSDLIWPSGITIDFLTDKLYWCDAKQSVIEMANLDGSKRRRLTQNDVGHPFAVAVFEDYVWFSDWAMPSVMRVNKRTGKDRVRLQGSMLKPSSLVVVHPLAKPGADPCLYQNGGCEHICKKRLGTAWCSCREGFMKASDGKTCLALDGHQLLAGGEVDLKNQVTPLDILSKTRVSEDNITESQHMLVAEIMVSDQDDCAPVGCSMYARCISEGEDATCQCLKGFAGDGKLCSDIDECEMGVPVCPPASSKCINTEGGYVCRCSEGYQGDGIHCLDIDECQLGEHSCGENASCTNTEGGYTCMCAGRLSEPGLICPDSTPPPHLREDDHHYSVRNSDSECPLSHDGYCLHDGVCMYIEALDKYACNCVVGYIGERCQYRDLKWWELRHAGHGQQQKVIVVAVCVVVLVMLLLLSLWGAHYYRTQKLLSKNPKNPYEESSRDVRSRRPADTEDGMSSCPQPWFVVIKEHQDLKNGGQPVAGEDGQAADGSMQPTSWRQEPQLCGMGTEQGCWIPVSSDKGSCPQVMERSFHMPSYGTQTLEGGVEKPHSLLSANPLWQQRALDPPHQMELTQ
modifications: Pro-epidermal growth factor
For B1, the Colonies/Cultures in experiment [1] came to 430; in experiment [2], 258; in experiment [3] (Al-1, 1,000 cells) it was 41; in experiment [3] (Al-1, 10,000 cells), 685; in experiment [4], 68.
